These results are taken from paper PMC5234717 (Journal of Lipid Research, 2016).

Series [1] has as its target T1, S1PL2025 (Burkholderia pseudomallei, UniProt Q63IP4).
T1 construct: gene BPSS2025

Series [2] concerns the target T1, S1PL2025. This is another data set of the same source.
The next series has as its system CCCCCCCCCCCCC/C=C/C=O. The experiment in a line: purified protein. The following applies: pH 7.5; 37.0 °C.

T1 sequence (Q63IP4 35-507 limits assumed): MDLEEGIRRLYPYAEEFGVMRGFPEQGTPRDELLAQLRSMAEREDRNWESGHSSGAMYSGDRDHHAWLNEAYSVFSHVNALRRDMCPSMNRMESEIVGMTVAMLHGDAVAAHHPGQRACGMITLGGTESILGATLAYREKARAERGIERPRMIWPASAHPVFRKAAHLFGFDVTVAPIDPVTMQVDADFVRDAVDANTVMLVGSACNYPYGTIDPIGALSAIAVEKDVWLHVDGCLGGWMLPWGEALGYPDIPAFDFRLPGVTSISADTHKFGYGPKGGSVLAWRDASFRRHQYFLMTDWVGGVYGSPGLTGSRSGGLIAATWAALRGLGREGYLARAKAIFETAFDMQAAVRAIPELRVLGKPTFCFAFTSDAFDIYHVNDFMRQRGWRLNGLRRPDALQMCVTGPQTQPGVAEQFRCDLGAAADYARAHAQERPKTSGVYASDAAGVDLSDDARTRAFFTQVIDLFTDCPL

For `Cc1ncc(COP(=O)(O)O)c(C=O)c1O` [PLP], the UV-vis spectroscopy entry on S1PL2025 [1] was “A similar PLP binding spectrum was observed with S1PL2025”.

Turning to `NCCOP(=O)(O)O` [PE], the “UV-vis spectroscopy of PLP” value on S1PL2025 [2] was “UV-vis analysis of the binding of S1P and PE to the S1PL2025 enzyme”.

Usually Km stands for the substrate concentration at which the rate is half of its maximum. The Vmax is the rate approached at saturating substrate. By kcat/Km is commonly meant the turnover number divided by the Michaelis constant. As to FALDH (Homo sapiens), in the series with CCCCCCCCCCCCC/C=C/C=O, the Km is 19.4 ± 3.2 µM, the maximum rate (Vmax) came out at 0.315 µmol/min/mg and the kcat/Km was found to be 11300 M⁻¹ s⁻¹.
